Read-outs that look alike come from different tables or passages of the source.

In series [1] the target is T1, GST-CCA1 (Arabidopsis thaliana, UniProt P92973 1-608). Put plainly: EMSA. For orientation: Mobility shift assays separate free from complexed probe on a gel.
Series [2] addresses T1, GST-CCA1. Put plainly: EMSA. This is another data set of the same source.

T1 sequence (P92973 whole entry): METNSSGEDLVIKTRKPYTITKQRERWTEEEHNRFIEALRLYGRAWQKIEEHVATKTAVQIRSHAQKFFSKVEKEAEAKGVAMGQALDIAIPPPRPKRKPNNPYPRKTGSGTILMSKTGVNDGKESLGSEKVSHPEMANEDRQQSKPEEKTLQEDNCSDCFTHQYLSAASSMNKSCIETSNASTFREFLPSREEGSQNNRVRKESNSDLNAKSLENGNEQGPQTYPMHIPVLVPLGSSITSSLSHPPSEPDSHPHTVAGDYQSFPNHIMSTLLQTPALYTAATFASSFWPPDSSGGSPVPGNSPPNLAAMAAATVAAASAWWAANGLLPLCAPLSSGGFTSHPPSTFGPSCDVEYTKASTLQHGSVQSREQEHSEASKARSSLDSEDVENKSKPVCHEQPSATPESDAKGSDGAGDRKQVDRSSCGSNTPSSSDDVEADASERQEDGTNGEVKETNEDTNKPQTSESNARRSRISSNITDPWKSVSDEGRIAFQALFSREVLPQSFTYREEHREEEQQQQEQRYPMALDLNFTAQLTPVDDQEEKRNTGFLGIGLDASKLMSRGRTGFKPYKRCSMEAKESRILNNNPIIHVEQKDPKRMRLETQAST

B1: LumF (LumFs/LumFa) (dsDNA)
DNA 1: AAGTGAAAAAAAAAAGAGATATTCGAAGGG
DNA 2: GATTCCCTTCGAATATCTCTTTTTTTTTTC
Regarding B1, in the series with GST-CCA1 [1], the binding result is listed as “binds”.

B2: LumM (LumMs/LumMa) (dsDNA)
DNA 1: TAAGTAGATATTGAAAGCAAGATTGAAAAAAATGTTG
DNA 2: AATCAAACATTTTTTTCAATCTTGCTTTCAATATCT
As to B2, the binding result with GST-CCA1 [1] is given as “binds”.

B3: LumMD (LumMDs/LumMDa) (dsDNA)
DNA 1: TAAGTAGCTATTGAAAGCAAGATTGAAAAAAATGTTG
DNA 2: AATCAAACATTTTTTTCAATCTTGCTTTCAATAGCT
Consider B3, for which the binding result with GST-CCA1 [2] was “no binding”.

B4: LumFD (LumFDs/LumFDa) (dsDNA)
DNA 1: AAGTGAAAAAAAAAAGAGCTATTCGAAGGG
DNA 2: GATTCCCTTCGAATAGCTCTTTTTTTTTTC
Take B4: the binding result with GST-CCA1 [2] is “no binding”.

These data come from article PMC3060684.
